Measured values reported in the Human Domainome abundance scans (Beltran et al. 2025).
± gives the uncertainty stated by the source.

Experiment: abundance fitness (aPCA) (normalised: wild type 0, dead -1); higher = more abundant; growth selection in yeast, the domain comes from the species named
Conditions: Homo sapiens

Row | Substance | abundance fitness
1 | SAFB-like transcription modulator Q54W, Q9NWH9 | -0.043 ± 0.08
2 | SAFB-like transcription modulator Q54Y, Q9NWH9 | -0.497 ± 0.27
3 | SAFB-like transcription modulator R26A, Q9NWH9 | -0.12 ± 0.1
4 | SAFB-like transcription modulator R26C, Q9NWH9 | -0.57 ± 0.14
5 | SAFB-like transcription modulator R26D, Q9NWH9 | 0.033 ± 0.15
6 | SAFB-like transcription modulator R26E, Q9NWH9 | -0.191 ± 0.11
7 | SAFB-like transcription modulator R26F, Q9NWH9 | -0.268 ± 0.065
8 | SAFB-like transcription modulator R26G, Q9NWH9 | -0.19 ± 0.08
9 | SAFB-like transcription modulator R26H, Q9NWH9 | -0.322 ± 0.23
10 | SAFB-like transcription modulator R26K, Q9NWH9 | -0.389 ± 0.14
11 | SAFB-like transcription modulator R26L, Q9NWH9 | -0.131 ± 0.078
12 | SAFB-like transcription modulator R26M, Q9NWH9 | -0.098 ± 0.092
13 | SAFB-like transcription modulator R26P, Q9NWH9 | -0.126 ± 0.14
14 | SAFB-like transcription modulator R26Q, Q9NWH9 | -0.502 ± 0.17
15 | SAFB-like transcription modulator R26S, Q9NWH9 | -0.011 ± 0.071
16 | SAFB-like transcription modulator R26T, Q9NWH9 | -0.302 ± 0.12
17 | SAFB-like transcription modulator R26V, Q9NWH9 | -0.365 ± 0.085
18 | SAFB-like transcription modulator R26W, Q9NWH9 | -0.627 ± 0.1
19 | SAFB-like transcription modulator R26Y, Q9NWH9 | -0.579 ± 0.27
20 | SAFB-like transcription modulator R36S, Q9NWH9 | -0.048 ± 0.42
21 | SAFB-like transcription modulator R37A, Q9NWH9 | -1.09 ± 0.091
22 | SAFB-like transcription modulator R37C, Q9NWH9 | -0.921 ± 0.052
23 | SAFB-like transcription modulator R37D, Q9NWH9 | -0.621 ± 0.052
24 | SAFB-like transcription modulator R37E, Q9NWH9 | -0.694 ± 0.036
25 | SAFB-like transcription modulator R37G, Q9NWH9 | -0.912 ± 0.047
26 | SAFB-like transcription modulator R37H, Q9NWH9 | -0.648 ± 0.066

Row | Substance | abundance fitness
27 | SAFB-like transcription modulator R37I, Q9NWH9 | -1.07 ± 0.16
28 | SAFB-like transcription modulator R37K, Q9NWH9 | -0.283 ± 0.098
29 | SAFB-like transcription modulator R37L, Q9NWH9 | -0.71 ± 0.045
30 | SAFB-like transcription modulator R37M, Q9NWH9 | -0.601 ± 0.064
31 | SAFB-like transcription modulator R37N, Q9NWH9 | -1.12 ± 0.17
32 | SAFB-like transcription modulator R37P, Q9NWH9 | -0.658 ± 0.094
33 | SAFB-like transcription modulator R37Q, Q9NWH9 | -0.575 ± 0.13
34 | SAFB-like transcription modulator R37S, Q9NWH9 | -0.845 ± 0.057
35 | SAFB-like transcription modulator R37T, Q9NWH9 | -0.751 ± 0.078
36 | SAFB-like transcription modulator R37V, Q9NWH9 | -1.06 ± 0.08
37 | SAFB-like transcription modulator R37W, Q9NWH9 | -1.26 ± 0.071
38 | SAFB-like transcription modulator R37Y, Q9NWH9 | -0.722 ± 0.16
39 | SAFB-like transcription modulator R51A, Q9NWH9 | -0.437 ± 0.077
40 | SAFB-like transcription modulator R51D, Q9NWH9 | -0.783 ± 0.4
41 | SAFB-like transcription modulator R51F, Q9NWH9 | -1.21 ± 0.38
42 | SAFB-like transcription modulator R51G, Q9NWH9 | -0.574 ± 0.078
43 | SAFB-like transcription modulator R51H, Q9NWH9 | -0.814 ± 0.27
44 | SAFB-like transcription modulator R51I, Q9NWH9 | -0.542 ± 0.22
45 | SAFB-like transcription modulator R51K, Q9NWH9 | -0.2 ± 0.065
46 | SAFB-like transcription modulator R51L, Q9NWH9 | -0.753 ± 0.068
47 | SAFB-like transcription modulator R51M, Q9NWH9 | -0.506 ± 0.051
48 | SAFB-like transcription modulator R51N, Q9NWH9 | -0.403 ± 0.037
49 | SAFB-like transcription modulator R51P, Q9NWH9 | -0.699 ± 0.13
50 | SAFB-like transcription modulator R51S, Q9NWH9 | -0.511 ± 0.063
51 | SAFB-like transcription modulator R51T, Q9NWH9 | -0.57 ± 0.13
52 | SAFB-like transcription modulator R51V, Q9NWH9 | -0.73 ± 0.19

Row | Substance | abundance fitness
53 | SAFB-like transcription modulator R51W, Q9NWH9 | -1.1 ± 0.085
54 | SAFB-like transcription modulator R51Y, Q9NWH9 | -1.01 ± 0.35
55 | SAFB-like transcription modulator S32A, Q9NWH9 | -0.147 ± 0.062
56 | SAFB-like transcription modulator S32C, Q9NWH9 | -0.309 ± 0.067
57 | SAFB-like transcription modulator S32D, Q9NWH9 | 0.156 ± 0.073
58 | SAFB-like transcription modulator S32E, Q9NWH9 | -0.03 ± 0.05
59 | SAFB-like transcription modulator S32F, Q9NWH9 | -0.125 ± 0.036
60 | SAFB-like transcription modulator S32G, Q9NWH9 | -0.077 ± 0.051
61 | SAFB-like transcription modulator S32H, Q9NWH9 | -0.031 ± 0.055
62 | SAFB-like transcription modulator S32K, Q9NWH9 | -0.246 ± 0.085
63 | SAFB-like transcription modulator S32L, Q9NWH9 | -0.024 ± 0.04
64 | SAFB-like transcription modulator S32M, Q9NWH9 | -0.051 ± 0.044
65 | SAFB-like transcription modulator S32N, Q9NWH9 | -0.407 ± 0.11
66 | SAFB-like transcription modulator S32P, Q9NWH9 | -0.768 ± 0.058
67 | SAFB-like transcription modulator S32Q, Q9NWH9 | -0.325 ± 0.097
68 | SAFB-like transcription modulator S32R, Q9NWH9 | -0.176 ± 0.045
69 | SAFB-like transcription modulator S32T, Q9NWH9 | -0.048 ± 0.068
70 | SAFB-like transcription modulator S32V, Q9NWH9 | -0.023 ± 0.051
71 | SAFB-like transcription modulator S32W, Q9NWH9 | -0.108 ± 0.049
72 | SAFB-like transcription modulator S32Y, Q9NWH9 | -0.173 ± 0.09
73 | SAFB-like transcription modulator S50A, Q9NWH9 | 0.015 ± 0.037
74 | SAFB-like transcription modulator S50C, Q9NWH9 | -0.342 ± 0.082
75 | SAFB-like transcription modulator S50D, Q9NWH9 | -0.109 ± 0.065
76 | SAFB-like transcription modulator S50E, Q9NWH9 | 0.087 ± 0.075
77 | SAFB-like transcription modulator S50F, Q9NWH9 | -0.253 ± 0.052
78 | SAFB-like transcription modulator S50G, Q9NWH9 | 0.028 ± 0.039

Row | Substance | abundance fitness
79 | SAFB-like transcription modulator S50H, Q9NWH9 | -0.353 ± 0.47
80 | SAFB-like transcription modulator S50I, Q9NWH9 | -0.514 ± 0.29
81 | SAFB-like transcription modulator S50K, Q9NWH9 | -0.111 ± 0.083
82 | SAFB-like transcription modulator S50L, Q9NWH9 | -0.055 ± 0.075
83 | SAFB-like transcription modulator S50P, Q9NWH9 | -0.521 ± 0.14
84 | SAFB-like transcription modulator S50Q, Q9NWH9 | -0.486 ± 0.22
85 | SAFB-like transcription modulator S50R, Q9NWH9 | -0.037 ± 0.062
86 | SAFB-like transcription modulator S50V, Q9NWH9 | -0.38 ± 0.072
87 | SAFB-like transcription modulator T23A, Q9NWH9 | -0.063 ± 0.035
88 | SAFB-like transcription modulator T23C, Q9NWH9 | -0.083 ± 0.042
89 | SAFB-like transcription modulator T23D, Q9NWH9 | -0.093 ± 0.041
90 | SAFB-like transcription modulator T23E, Q9NWH9 | -0.001 ± 0.034
91 | SAFB-like transcription modulator T23F, Q9NWH9 | -0.127 ± 0.035
92 | SAFB-like transcription modulator T23G, Q9NWH9 | -0.072 ± 0.034
93 | SAFB-like transcription modulator T23H, Q9NWH9 | -0.281 ± 0.034
94 | SAFB-like transcription modulator T23I, Q9NWH9 | -0.019 ± 0.033
95 | SAFB-like transcription modulator T23L, Q9NWH9 | -0.184 ± 0.031
96 | SAFB-like transcription modulator T23M, Q9NWH9 | -0.06 ± 0.038
97 | SAFB-like transcription modulator T23N, Q9NWH9 | -0.066 ± 0.035
98 | SAFB-like transcription modulator T23P, Q9NWH9 | -0.339 ± 0.031
99 | SAFB-like transcription modulator T23Q, Q9NWH9 | -0.034 ± 0.046
100 | SAFB-like transcription modulator T23R, Q9NWH9 | -0.178 ± 0.033
101 | SAFB-like transcription modulator T23S, Q9NWH9 | -0.021 ± 0.032
102 | SAFB-like transcription modulator T23V, Q9NWH9 | -0.049 ± 0.031
103 | SAFB-like transcription modulator T23W, Q9NWH9 | -0.175 ± 0.047
